Data taken from patent publication US20250026859A1 (BEIGENE, published 2025).

Target: T1, DXd-conjugated antigen
T1 construct: also called DXd conjugated antigens
Experiment: competitive ELISA: coated DXd-conjugated antigen, antibody titrated with 1 ug/ml free biotin-DXd (small molecule) as competitor, streptavidin-HRP detection

B1: 35D6 (antibody, V domains shown)
VH: QSVEESGGRLVTPGTPLTLTCTVSGFSLSSHWMSWVRQAPGKGLEWIGIISSSGSTDYVSWAKGRFTISKTSTTVDLKITSPTTEDTATYFCARDLGYSTNIWGPGTLVTVSL
VL: AYDMTQTPASVEVTVGGTVTIKCQASQSIGSYLAWYQQKPGQRPKLLIYDASTLASGVSSRFKGSGSGTQFTLTISGVECADAATYYCQQGYSSSGVDNAFGGGTEVVVK
notes: also called recombinant anti-DXd mAb 35D6
Work on B1 yielded an IC50 of 5.24 ng/mL.

B2: 77G10 (antibody, V domains shown)
VH: QSLEESGGRLVTPGTPLTLTCTASGFSLSSYYMSWVRQAPGKGLEYIGIISSSGSTDYASWAKGRFTISKTSTTVDLKITSPTTEDTATYFCARGWLDLWGQGTLVTVSS
VL: AAVLTQTPSPVSAAVGGTVSISCQSSKSVYNNNWLSWLQQKPGQPPKLLIHGASTLASGVPSRFKGSGSGTQFTLTISDVQCDDAATYYCAGGYSSSTDNAFGGGTEVVVK
notes: also called recombinant anti-DXd mAb 77G10
Binder B2 has an IC50 of 0.953 ng/mL.

B3: 76G4 (antibody, V domains shown)
VH: QSVEESGGRLVTPGTPLTLTCTASGFSLSSYYMFWVRQAPGKGLEYIGYIGDGGYTSYATWAKGRFTISKTSSTTVDLKITSPTTEDTATYFCARDGFTSGSIWGPGTLVTVSS
VL: AAVLTQTPSPVSTAVGGTVTISCQSSKNVYNNNWLSWFQQKPGQPPKLLIYGTSTLASGVPSRFKGSGSGTQFTLTISDVQCDDAATYYCAGGYSSSSDNGFGAGTEVVVK
notes: also called recombinant anti-DXd mAb 76G4
Work on B3 yielded an IC50 of 0.753 ng/mL.

B4: 28C8 (antibody, V domains shown)
VH: QSVEESGGRLVTPGTPLTLTCTVSGFSLSSYAMNWVRQAPGKGLEYIGIIYDSGSTYYANWAKGRFTISKTSTTVDLKITSPTTEDTATYFCARGYLDIWGPGTLVTVSS
VL: AAVLTQTPSPVSAAVGGTVSISCQSSKSVYNNKWLSWLQQKPGQPPKLLIYGASTLASGVPSRFKGSGSGTEFTLTISDVQCDDAATYYCAGGYSISSDNAFGGGTEVVVK
notes: also called recombinant anti-DXd mAb 28C8
B4 showed an IC50 of 1.58 ng/mL.

B5: 29D2 (antibody, V domains shown)
VH: QSVEESGGRLVTPGTPLTLTCTASGFSLSSYAMNWVRQAPGKGLEYIGIIYDSGTTYYASWAKGRFTISKTSTTVDLKITSPTTEDTATYFCARAALDIWGPGTLVTVSS
VL: AAVLTQTPSPVSAAVGGTVSISCQASKSVYNNNWLSWVQQTPGQPPKLLIYGASTLASGVPSRFKGSGSGTQFTLTISDVQCDDAATYYCAGGYGSSSDNAFGGGTEVVVE
notes: also called recombinant anti-DXd mAb 29D2
Binder B5 has an IC50 of 1.26 ng/mL.
